# Source: IntAct's records for PubMed 26524528
# B1: Lamin-B1 (Homo sapiens), P20700 (parent)
# chain: MATATPVPPRMGSRAGGPTTPLSPTRLSRLQEKEELRELNDRLAVYIDKVRSLETENSALQLQVTEREEVRGRELTGLKALYETELADARRALDDTARERAKLQIELGKCKAEHDQLLLNYAKKESDLNGAQIKLREYEAALNSKDAALATALGDKKSLEGDLEDLKDQIAQLEASLAAAKKQLADETLLKVDLENRCQSLTEDLEFRKSMYEEEINETRRKHETRLVEVDSGRQIEYEYKLAQALHEMREQHDAQVRLYKEELEQTYHAKLENARLSSEMNTSTVNSAREELMESRMRIESLSSQLSNLQKESRACLERIQELEDLLAKEKDNSRRMLTDKEREMAEIRDQMQQQLNDYEQLLDVKLALDMEISAYRKLLEGEEERLKLSPSPSSRVTVSRASSSRSVRTTRGKRKRVDVEESEASSSVSISHSASATGNVCIEEIDVDGKFIRLKNTSEQDQPMGGWEMIRKIGDTSVSYKYTSRYVLKAGQTVTIWAANAGVTASPPTDLIWKNQNSWGTGEDVKVILKNSQGEEVAQRSTVFKTTIPEEEEEEEEAAGVVVEEELFHQQGTPRASNRSCAIM
# Variants of: B1
# Details: with mlp3b_human MAP1LC3B
row,Variant,effect of a mutation on the interaction
1,MATATPVPPRMGSRAGGPTTPLSPTRLSRLQEKEELRELNDRLAVYIDKVRSLETENSALQLQVTEREEVRGRELTGLKALYETELADARRALDDTARERAKLQIELGKCKAEHDQLLLNYAKKESDLNGAQIKLREYEAALNSKDAALATALGDKKSLEGDLEDLKDQIAQLEASLAAAKKQLADETLLKVDLENRCQSLTEDLEFRKSMYEEEINETRRKHETRLVEVDSGRQIEYEYKLAQALHEMREQHDAQVRLYKEELEQTYHAKLENARLSSEMNTSTVNSAREELMESRMRIESLSSQLSNLQKESRACLERIQELEDLLAKEKDNSRRMLTDKEREMAEIRDQMQQQLNDYEQLLDVKLALDMEISAYRKLLEGEEERLKLSPAPAAAATVSRASSSRSVRTTRGKRKRVDVEESEASSSVSISHSASATGNVCIEEIDVDGKFIRLKNTSEQDQPMGGWEMIRKIGDTSVSYKYTSRYVLKAGQTVTIWAANAGVTASPPTDLIWKNQNSWGTGEDVKVILKNSQGEEVAQRSTVFKTTIPEEEEEEEEAAGVVVEEELFHQQGTPRASNRSCAIM [S393A;S395A;S396A;R397A;V398A],disrupting interaction strength
2,MATATPVPPRMGSRAGGPTTPLSPTRLSRLQEKEELRELNDRLAVYIDKVRSLETENSALQLQVTEREEVRGRELTGLKALYETELADARRALDDTARERAKLQIELGKCKAEHDQLLLNYAKKESDLNGAQIKLREYEAALNSKDAALATALGDKKSLEGDLEDLKDQIAQLEASLAAAKKQLADETLLKVDLENRCQSLTEDLEFRKSMYEEEINETRRKHETRLVEVDSGRQIEYEYKLAQALHEMREQHDAQVRLYKEELEQTYHAKLENARLSSEMNTSTVNSAREELMESRMRIESLSSQLSNLQKESRACLERIQELEDLLAKEKDNSRRMLTDKEREMAEIRDQMQQQLNDYEQLLDVKLALDMEISAYRKLLEGEEERLKLSPAPAAAVTVSRASSSRSVRTTRGKRKRVDVEESEASSSVSISHSASATGNVCIEEIDVDGKFIRLKNTSEQDQPMGGWEMIRKIGDTSVSYKYTSRYVLKAGQTVTIWAANAGVTASPPTDLIWKNQNSWGTGEDVKVILKNSQGEEVAQRSTVFKTTIPEEEEEEEEAAGVVVEEELFHQQGTPRASNRSCAIM [S393A;S395A;S396A;R397A],decreasing interaction strength
3,MATATPVPPRMGSRAGGPTTPLSPTRLSRLQEKEELRELNDRLAVYIDKVRSLETENSALQLQVTEREEVRGRELTGLKALYETELADARRALDDTARERAKLQIELGKCKAEHDQLLLNYAKKESDLNGAQIKLREYEAALNSKDAALATALGDKKSLEGDLEDLKDQIAQLEASLAAAKKQLADETLLKVDLENRCQSLTEDLEFRKSMYEEEINETRRKHETRLVEVDSGRQIEYEYKLAQALHEMREQHDAQVRLYKEELEQTYHAKLENARLSSEMNTSTVNSAREELMESRMRIESLSSQLSNLQKESRACLERIQELEDLLAKEKDNSRRMLTDKEREMAEIRDQMQQQLNDYEQLLDVKLALDMEISAYRKLLEGEEERLKLSPSPSAAVTVSRASSSRSVRTTRGKRKRVDVEESEASSSVSISHSASATGNVCIEEIDVDGKFIRLKNTSEQDQPMGGWEMIRKIGDTSVSYKYTSRYVLKAGQTVTIWAANAGVTASPPTDLIWKNQNSWGTGEDVKVILKNSQGEEVAQRSTVFKTTIPEEEEEEEEAAGVVVEEELFHQQGTPRASNRSCAIM [S396A;R397A],decreasing interaction strength
4,MATATPVPPRMGSRAGGPTTPLSPTRLSRLQEKEELRELNDRLAVYIDKVRSLETENSALQLQVTEREEVRGRELTGLKALYETELADARRALDDTARERAKLQIELGKCKAEHDQLLLNYAKKESDLNGAQIKLREYEAALNSKDAALATALGDKKSLEGDLEDLKDQIAQLEASLAAAKKQLADETLLKVDLENRCQSLTEDLEFRKSMYEEEINETRRKHETRLVEVDSGRQIEYEYKLAQALHEMREQHDAQVRLYKEELEQTYHAKLENARLSSEMNTSTVNSAREELMESRMRIESLSSQLSNLQKESRACLERIQELEDLLAKEKDNSRRMLTDKEREMAEIRDQMQQQLNDYEQLLDVKLALDMEISAYRKLLEGEEERLKLSPAPASRVTVSRASSSRSVRTTRGKRKRVDVEESEASSSVSISHSASATGNVCIEEIDVDGKFIRLKNTSEQDQPMGGWEMIRKIGDTSVSYKYTSRYVLKAGQTVTIWAANAGVTASPPTDLIWKNQNSWGTGEDVKVILKNSQGEEVAQRSTVFKTTIPEEEEEEEEAAGVVVEEELFHQQGTPRASNRSCAIM [S393A;S395A],decreasing interaction strength
5,MATATPVPPRMGSRAGGPTTPLSPTRLSRLQEKEELRELNDRLAVYIDKVRSLETENSALQLQVTEREEVRGRELTGLKALYETELADARRALDDTARERAKLQIELGKCKAEHDQLLLNYAKKESDLNGAQIKLREYEAALNSKDAALATALGDKKSLEGDLEDLKDQIAQLEASLAAAKKQLADETLLKVDLENRCQSLTEDLEFRKSMYEEEINETRRKHETRLVEVDSGRQIEYEYKLAQALHEMREQHDAQVRLYKEELEQTYHAKLENARLSSEMNTSTVNSAREELMESRMRIESLSSQLSNLQKESRACLERIQELEDLLAKEKDNSRRMLTDKEREMAEIRDQMQQQLNDYEQLLDVKLALDMEISAYRKLLEGEEERLKLSPSPSSRATVSRASSSRSVRTTRGKRKRVDVEESEASSSVSISHSASATGNVCIEEIDVDGKFIRLKNTSEQDQPMGGWEMIRKIGDTSVSYKYTSRYVLKAGQTVTIWAANAGVTASPPTDLIWKNQNSWGTGEDVKVILKNSQGEEVAQRSTVFKTTIPEEEEEEEEAAGVVVEEELFHQQGTPRASNRSCAIM [V398A],decreasing interaction strength
6,MATATPVPPRMGSRAGGPTTPLSPTRLSRLQEKEELRELNDRLAVYIDKVRSLETENSALQLQVTEREEVRGRELTGLKALYETELADARRALDDTARERAKLQIELGKCKAEHDQLLLNYAKKESDLNGAQIKLREYEAALNSKDAALATALGDKKSLEGDLEDLKDQIAQLEASLAAAKKQLADETLLKVDLENRCQSLTEDLEFRKSMYEEEINETRRKHETRLVEVDSGRQIEYEYKLAQALHEMREQHDAQVRLYKEELEQTYHAKLENARLSSEMNTSTVNSAREELMESRMRIESLSSQLSNLQKESRACLERIQELEDLLAKEKDNSRRMLTDKEREMAEIRDQMQQQLNDYEQLLDVKLALDMEISAYRKLLEGEEERLKLSPSPAARVTVSRASSSRSVRTTRGKRKRVDVEESEASSSVSISHSASATGNVCIEEIDVDGKFIRLKNTSEQDQPMGGWEMIRKIGDTSVSYKYTSRYVLKAGQTVTIWAANAGVTASPPTDLIWKNQNSWGTGEDVKVILKNSQGEEVAQRSTVFKTTIPEEEEEEEEAAGVVVEEELFHQQGTPRASNRSCAIM [S395A;S396A],decreasing interaction strength
